Experimental data from the DeepSol protein solubility set.

assay: soluble on expression in E. coli; label from the status in PepcDB or PDB records

Sequence | soluble on expression in E. coli
METSNFVKQLSSNNRKTRVNALEALKKYLTAKQFKENKQIEFNKLWKGLYYAMWFSDRPRPQQRLANELGELHGLYFDPKDNSTADELTTNDKAFIKFSRGFWKVMCFEWFNIDRYRLDKYLLLIRRVLFSQLKYLQSRNWDKKLVDEYIKKVLRWLPLSGSPKVYTGIPIHIVDILLDEWERLLKDGDEDDEDEENKEEEMRKIAESAKKTPLADVIAIFQDIVADYNNSKVLREKIKEDLFSDTRLVSWDILEGETQHNDSSNESEEEEEEEWKGF | not soluble
MGSDKIHHHHHHMLCAISGKVPRRPVLSPKSRTIFEKSLLEQYVKDTGNDPITNEPLSIEEIVEIVPSAQQASLTESTNSATLKANYSIPNLLTSLQNEWDAIMLENFKLRSTLDSLTKKLSTVMYERDAAKLVAAQLLMEKNEDSKDLPKSSQQAVAITREEFLQGLLQSSRDFVARGKLKAPKWPILKNLELLQAQNYSRNIKTFPYKELNKSMYYDKWVCMCRCEDGALHFTQLKDSKTITTITTPNPRTGGEHPAIISRGPCNRLLLLYPGNQITILDSKTNKVLREIEVDSANEIIYMYGHNEVNTEYFIWADNRGTIGFQSYEDDSQYIVHSAKSDVEYSSGVLHKDSLLLALYSPDGILDVYNLSSPDQASSRFPVDEEAKIKEVKFADNGYWMVVECDQTVVCFDLRKDVGTLAYPTYTIPEFKTGTVTYDIDDSGKNMIAYSNESNSLTIYKFDKKTKNWTKDEESALCLQSDTADFTDMDVVCGDGGIAAILKTNDSFNIVALTP | not soluble
MSTYDTAVLDDTLVSCLSQLIGAEHIDTLTLEGRFEITRIAAALSGRPGPAPRAILMSGLQGSGKTTLARALEAAGFRRLCPDEEMFRRYGHYGRDFPRGEFRVREAPVLKDIALELQELLTAGHEVVVDHGFWTREERAQWAMTVMEAGGKPVLIYLPVPHEVRWDRIRKRNEQSLVDANSIEFSEEDLLRHAGRFSPPTDDEPHIVYDGQPDSVLADIQLSRHFDALEHHHHHH | not soluble
MSKIFEDNSLTIGHTPLVRLNRIGNGRILAKVESRNPSFSVKCRIGANMIWDAEKRGVLKPGVELVEPTSGNTGIALAYVAAARGYKLTLTMPETMSIERRKLLKALGANLVLTEGAKGMKGAIQKAEEIVASNPEKYLLLQQFSNPANPEIHEKTTGPEIWEDTDGQVDVFIAGVGTGGTLTGVSRYIKGTKGKTDLISVAVEPTDSPVIAQALAGEEIKPGPHKIQGIGAGFIPANLDLKLVDKVIGITNEEAISTARRLMEEEGILAGISSGAAVAAALKLQEDESFTNKNIVVILPSSGERYLSTALFADLFTEKELQQ | soluble
MSTKEEITKEIEEQGAEVRRVKGDKNSTEEAKKEAIDKLLALKLTYKEVTGQEYAAPNARQSKPKKEEKPKQQPKQQEKKQDGKKQTLLGVGTKKDDNYSEWYSEVITKAEMIEYYDVSGCYVLRPWSFAVWESIQEWFDSGIKKLGVKNCYFPMFVSNAALEREKTHIADFAPEVAWVTRAGNSEMAEPIAIRPTSETVMYPSYKKWVQSHRDLPIKLNQWCNVVRWEFKHPTPFLRTREFLWQEGHTAFANPADAEKEVFQILDLYAGVYTDLLAIPVVKGRKSEKEKFAGGDFTTTVEAYVACNGRGIQGATSHHLGQNFSKMFDISYEDPAKEGERAFAWQNSWGLSTRTIGAMVMIHGDDKGLVLPPRVAAVQVIVVPVGFKTENKQSLFDAVDKVTKDLVADGVKAEHDLRENYNAGWKFNHWELKGVPIRFEVGPNDLAKNQVTAVIRHNGEKKQLSLEGLSKTVKSLLDEIHTAMYNKVLAQRDSHLKSTTCIEEFKKLLDEKCIILSPFCGRPDCEEEIKKASTREDGEGAQMGAKTLCIPLDQPKQELPSKCLFPSCTYNAKAFALFGRSY | not soluble
MSLGLSKTIWTNPAEYLRALSPEAPVLFFSPSTLQATARRFIDGFPGMVTYAVKSNPEEVVIENLAAAGIRGYDVASPHEIRMIRRIAPDAALHYNNPVRSRSEIGVGVEMGVKSWSVDSASELAKLIELVPAEGCEIAVRFKLAVSGAAYNFGAKFGATVELAVELLRRVAEAGFIPSMTFHPGTQCTDPAAWETYIRTAAEIARDAGVTIARLNVGGGFPSHRLNGVEPELEAIFHLIDRVTDEAFGADRPLLVCEPGRGICADAFTLAARIKAVRDDAHVFLNDGVYGSLTELPMIGVIDRVAVLTPEGRRRDGETRDRIIFGPTCDSVDRLPGELPLAADVEEGDFLVFQGMGAYSAATNTRFNGFGELSMATVLSLKEGHHHHHH | soluble
MAYRNIKIVKGNGGFGGPLIIAPTDEKHKFIYITGGGEKPEIVDKIVELTGMEAVNGFKTSIPDEEIALAIVDCGGTLRCGIYPKKGIPTINIVATGKSGPLAQYITEDIYVSAVGMEQITSIEESAGSIETKEAKAETAQSQTGTGTYDTSKKITEQRAQQSVIARIGMGAGKVVAVFNQAARDAIQ | not soluble
GGGGGGMLNRVFLEGEIESSCWSVKKTGFLVTIKQMRFFGERLFTDYYVIYANGQLAYELEKHTKKYKTISIEGILRTYLERKSEIWKTTIEIVKIFNPKNEIVIDYKEI | soluble
MGSDKIHHHHHHMFGFRLSGGKGILQRSQVALVVMESTGGLEIPAAKAIRRAGIAVIIANPRQTHQFAQLQPLTKTDAKDAKMPAFFAQMTAQKEDSQTMPYQPPTEAEEVLEALVNRRNQSADMRTAEKNRLHQVHETQVGSVKQLIAHFDRLIDELDKQIDDHTHTHFDGKAQVAEQIKGIGSITTATLMAMLPELGRLSHKRIASLAGIAPHPRESEETKFKSRCFGGRSAVRKALYMATVAATRFEPLIRDFYQRLLSKGKPYKVAVTACMRKLLTISNTRMRDYFAENDTAENGIRTA | not soluble
MDLVDKRDVLIGDFRPSLGFYGGVRVGVYLDTTEPKHAKIKGFAMETLKRSSKVWLQELRSNLNIFWGTIESEISKNGAASYIFPLQRCIFSFLCASLAGVDASVSPDIAENGWKTINTWLALQVIPTAKLGVVPQPLEEILLHTWPYPSLLIAGNYKKLYNFIDENAGDCLRLGQEEFGLTRDEAIQNLLFVLGFNAYGGFSVFLPSLIGRITGDNSGLQERIRTEVRRVCGSGSDLNFKTVNEMELVKSVVYETLRFSPPVPLQFARARKDFQISSHDAVFEVKKGELLCGYQPLVMRDANVFDEPEEFKPDRYVGETGSELLNYLYWSNGPQTGTPSASNKQCAAKDIVTLTASLLVADLFLRYDTITGDSGSIKAVVKAK | soluble
AHHHHHHASAKWVCKICGYIYDEDAGDPDNGISPGTKFEELPDDWVCPICGAPKSEFEKLEDGSRRMDKVDLQLIKILSQNSRLTYRELAEMLGTTRQRVARKVDKLKKLGIIRKFTIIPNLEKLNYMYAILLIKVKATENIYQVAKVLKDHEDVKILELGVGKYNIIAHVLVPKDIKKAQEKVNDVIKEINGIEDLEVEFVSDIPKFELL | soluble
MRYFLCPGKTDMRKGMNSLCGVIHNKMGYDVRLGDVFIFINRQRTTMKLLHAEDGDLVLYIKRLEEGTFRLPEYDQQSRSYPMEWRDLVMMVKGINNGSAKRLKRLKALRKSDI | not soluble
MAHHHHHHMNHSPFLTALYTDVQSRLPLWTTRYVKPISNGTFAVSSTWTDDSGAQLQRLFIAVEASDTNCISEAVLAEWIAFVEAWQAAHKEDEVSCFVGFVDLAGTVSYYRCETAVAGAWRSKPDDHLTCR | not soluble
MKNIVIVGGGVAGTITANYLAMKLREEIREKNVSITLISDREKQLYEPGLLYLIFNRMEESEILKDVKYLLDPLIELKIARATKIDAEKSRVELENGEVVNYDYLVIATGSRVAPEEMPGLVDGGHWFYNLDGAKRLREELARFKKGKVVVSVMGIPHKCPVAPIEVTFMLHEFFKIHGVRKDVELLYTYPINRVFTMEEVSDLVQKMFDERGINYKTFFNPVSIDPEKKVIETLEGEEEPYDLLIAIPPHKGSQVIIDSGLGDRDGWVPTDRYTLKAEGLENVYVVGDATNLPVSKAGSVAHFEAEVVAENIAAEIKGLPPTARYFGKAMCFIETGFSEATYIWFDYETPPKFVKPNKFIHWMKLAYNRMYWLTARGMLLEHHHHHH | soluble
MSLYTLYSFGTPNGFKPTIMLEELTQPYTIELIDITQGEQFNPDFLKISPNNKIPVLHDQTNDFYLMESVAILQYLAEKHRQFLPETTKEKYTIIQWCYFQAAHIGPMFGQFGHFHRYAQERVPYAMTRYADESMRLLGVMEKQLVKAPFIGGSNYTIADMAIWPWIWCFQFIYGQTIDAKQFPSLMSWYQRISERQAVRATLTAYGREGHHHHHH | soluble
MAYKSLLTVATSPERVEPAITVASRLALSSDAHLDVLALGIDGTQVAYYNMGGTAVVLQMALERAEQEAQAVEKAAAAALSAQPAMLRASVESAVAQMGGLAGLVALRSRFADLVVLSRPYGKGRGAETEAVVEAALFEGQAPVLVVPDDPALSERFGHRIVIAWDQSREALTAVRKAMPFLLRADNVDIVIVDPAAHGAERSDPGGALCQMLVRHGVRAEVSVLAKTMPRISDVIARHVRDQDADLLVMGAYGHSRFREAILGGATRDMLELAEVPVLMAH | not soluble
MIKTVVGSYPVVKGKPDSIPDKIKKFFGKYDKYEYSIKKALDDQLNVGIDILSDGQVRGDMVEIFVSNMYGFEGRRVVNRVEFVKPITLNDIKYSLKYISKKDPEKGVKGIITGACTLASSIRVENYYSDNKDENLIYDLAGALNKEALSIQNHVKMIQFDEPILSTGLYDLEVAKKAMDIITSGINVPVAMHVCGDVSKIFYKLNEFNVDILDHEFASCRKNLEILNEITKKVGFGCINTKLKSVDSVDEVKALISEGIEILKNNSKFEGSINDSVIIDPDCGMRLLPVDVAYSKLNNMVTAANEIEKDLILEHHHHHH | not soluble
MGSDKIHHHHHHMALNKPKIVILGAGYGGLMTVTRLTKYVGPNDADITLVNKHNYHYETTWMHEASAGTLHHDRCRYQIKDVINQSRVNFVQDTVKAIKIDEKKVVLANGELQYDYLVIGLGAVPETFGIKGLKEYAFPIANINTSRLLREHIELQFATYNTEAEKRPDRLTIVVGGAGFTGIEFLGELAARVPELCKEYDVDRSLVRIICVEAAPTVLPGFDPELVDYAVHYLEENGVEFKIGTAVQECTPEGVRVGKKDEEPEQIKSQTVVWAAGVRGHPIVEEAGFENMRGRVKVNPDLRAPGHDNVFILGDSSLFMNEDTERPYPPTAQIAMQQGITVAKNLGRLIKGGELEEFKPDIKGTVASLGEHNAVGVVYGRKLKGTPASFMKKVIDNRSLFMIGGLGLTLKKGKFKFF | not soluble
AHHHHHHGSLGRLARWLRLYGYDTLYGIEDDNEILRIAEEEGRIILTRDVELYRQAQVRNLRAILITSNSFEEQVKQLMMERVEFSELFPENARCPKCNGVIRSAKKEEVKGKVPENVYNSYNEFYICTSCGQIYWPGRQWREMLKMDKKIKANKL | soluble
MGSDKIHHHHHHMEPTFQPSRSAIPVLSVSGVGKTYAEPVLADVTLTLAPGEALALTGENGAGKSTLSKIIGGLVDPTTGTMQLGGQAYAPASRTQAEALGVRMVMQELNLLPTLTVAENLFLNRLPRRFGIIDRARLHDDAQAAMARVGLDAIDPDTPVGALGIGHQQMVEIARNLIGDCRVLILDEPTAMLTAREVELLFEQIDRLKAHGVAIVYISHRLDELARVAERVAVLRDGRLVHVGDMAATTSDGLVTLMVGREIGEHIDLGPRRIGAPRLAVSGMTRGTAVQDVSLEVRSGEIFGISGLIGAGRTELLRLIYGADTPDAGMISVGDPLKPARIASPVDAVRHGIALITEDRKGEGLLLSQSVTSNVSLGQLEQLARGGIVNTARETALAEQQIDALRIRTHGAAQPVGELSGGNQQKVVIGRWLARDMGVLLFDEPTRGIDVGAKFEIYTLMGALARDGRALVVVSSDLRELMLICDRIGVMSAGRMTAVFERGNWTQDALLAAAFAGFGRDALPEGARHLDAQAAPRAASGTSTTGRQQ | not soluble
TTATRQEVLGLYRSIFRLARKWQATSGQMEDTIKEKQYILNEARTLFRKNKNLTDTDLIKQCIDECTARIEIGLHY | soluble
